experiment: soluble on expression in E. coli; label from the status in PepcDB or PDB records

Soluble on expression in E. coli, soluble:
MHRLKYLTGYPPQLTAQVAHLVTENRLGEVLVQRYPTVHDVRTDRALYDFTVAVKNEFMRTAQPLSRVLYDGKIHAIKNALGTHTFVSRVQGGKLKAKHEIRIASIFREAPLEFLKMIVVHELAHLKEKEHNKAFYQLCEYMEPRYHQLEFDTRLFLTQVEIAGSPYLPLEHHHHHH
MHRTYSLRNSRAPTASQLQNPPPPPSTTKGRFFGKGGLAYSFRRSAAGAFGPELSRKLSQLVKIEKNVLRSMELTANERRDAAKQLSIWGLENDDDVSDITDKLGVLIYEVSELDDQFIDRYDQYRLTLKSIRDIEGSVQPSRDRKDKITDKIAYLKYKDPQSPKIEVLEQELVRAEAESLVAEAQLSNITRSKLRAAFNYQFDSIIEHSEKIALIAGYGKALLELLDDSPVTPGETRPAYDGYEASKQIIIDAESALNEWTLDSAQVKPTLSFKQDYEDFEPEEGEEEEEEDGQGRWSEDEQEDGQIEEPEQEEEGAVEEHEQVGHQQSESLPQQTTA
MIDQTALATEIKRLIKAAGPMPVWRYMELCLGHPEHGYYVTRDPLGREGDFTTSPEISQMFGELLGLWSASVWKAADEPQTLRLIEIGPGRGTMMADALRALRVLPILYQSLSVHLVEINPVLRQKQQTLLAGIRNIHWHDSFEDVPEGPAVILANEYFDVLPIHQAIKRETGWHERVIEIGASGELVFGVAADPIPGFEALLPPLARLSPPGAVFEWRPDTEILKIASRVRDQGGAALIIDYGHLRSDVGDTFQAIASHSYADPLQHPGRADLTAHVDFDALGRAAESIGARAHGPVTQGAFLKRLGIETRALSLMAKATPQVSEDIAGALQRLTGEGRGAMGSMFKVIGVSDPKIETLVALSDDTDREAERRQGTHGLEHHHHHH
MIDRPDTGEGTNYLIVGSDSRAGMSAEEKKKLHTGSAEGKRTDSMMILHTGDNGSTLVSLPRDSDVEIPTFKGSTSGKTYPGTGRHVKLNAAYAEDGPELLVRTIEYNTGLHIDHYVEIGFAGFANIVDSVGGVEMTLDKGFKDTFSGADFKAGKQTLNGEQALAFVRTRHAFAASDLERTKNQQKFLSALAHQVATPSTVLNPFKLYPTLSSGLDTLIVDKDMGLFDLADMFWAMKGVTGGDGTSMNMPISGSSGGNLVWDKAKVKALVNELKNDEKVTVSGNLEHHHHHH
MIDTLKNIKVKDVMTKNVITAKRHEGVVEAFEKMLKYKISSLPVIDDENKVIGIVTTTDIGYNLIRDKYTLETTIGDVMTKDVITIHEDASILEAIKKMDISGKKEEIINQLPVVDKNNKLVGIISDGDIIRTISKII

Soluble on expression in E. coli, not soluble:
MHNLANLYRTGWPGGVEKDTQKALDLYQKMIDLDVPQGFYDMGAMIGNRAGVKNPATDGLTFLDKAASLGNPPALTELGKFYIYVAKKKDLGLAYTHCAASQGYAPASYELGAYYKIVEHNFPKALVYYQVSVSQGGKSAAFFLSRVFGSETPPASAMWYAPDEKLREAYYSIYKKLEADPLEHHHHHH
MHPASGVMVTVETPETDTVFNRCRPAADGDIVVPHGSTAVLGTTSVDVDDADEFATPDAAVERVIDECSALLPAASDAPIRTTYWGVRPLYSPSDYGDDARAISRGFYVLDHADRDDTAGLTTVVGGKLTTHRLMAEATADLVADRLGVTEPSRTANEPLPGHDDPERLDALVDTFDAASPADADARLEHHHHHH
MHRPITAGHTTSRLILDQLKQISRTPSESSVQSALSQQASMSSPVLERSKSAPALLTAAQRTMLAQVGACNSHLTSDENMAINELRLHKPRLPKDTWFFTDPNKDPDDVVTYTLGKQLQAEGFVHITDVVATLGDAEVRSQRAEMAKGVFNKLGLHDVHVSRGRDYAMNSLQSKEHAKFLLEGHALRAGPGEIHRDSLQDMSRRLARAPHGVGIVVIAGMSDINALITTCPDMVRERVDDITIMGGVEPLKDADGFVQPDARAYNNATDMDAARSLYRKAQELGIPLRIVTKEAAYKTAVSPSFYEGIAGSGHPVGHYLRDVQKSALKGLWEGIQAGLLPGLDDSWFFRTFMPNAQIEAAQLDKNKESSFEDIWPKVTKLNLYDPLTLLASVPGAAKLLFKPKAIHTEGFGVVEQVGPDDVTHPEKAKLLMSALAKSALVQSTVAPD
MHSSILLLLSFASITTACPGLLNIFGGAGGGGCGGCGGGCGGGCGCAPPPPPCCGGGCGGCGRKKRSLPEKPTFVGIADSGDDVMCNTPALKKIILENIQTTASDSSKAINTVLESRQIQRFVVVCSEKPFVFTFRADAAYCGATKNGHNCHAFAM
MHTIELRNISKVIKNNIVLSNINYKFESGKVYGLKGRNGSGKSMLLRTISGLIRPTSGSVIIDGKELHKEIESPGNIGIVVENAGLYPDFTGFYNLKYLAGIMGQISDDEIINAIKRVGLDLYDKKIVKKYSLGMKQKIVIAQAIMEKPDFLLLDEPTNALDESGVKLLREIVQEEATRGALVIIASHNQEDIELLCDKVIIMADGKISDEYVNSREMNLCSEETQ
MHYSDHFHKVCIASELNEFTDAFRIIYSWLFSLKLLEPKFMDKDSIFCRLFTSIHFRLKYIAAPHYEERKRHLETLEKDGVPKAYIREYAEQQLNVIKQFKLEQKPIGHSFSTDEIIDAARCFGELSNGISVRSRYQRFRAVCMSWFSFMEVITGKDKSYPGSNYVDMFCEWHLTSKGSSVGATVHICQELDRFFAYINSKSVTINLLTAACIDGYIETYQSACFARKTVASKVSILRTFLRYLYNRSIIKTDMSSYLISPRIYTCEILSVSPNENDLNRISHFYDGNTPSAIRNKAILLLLIEYGMRSGGSYRFKT
MIAKIIKGTSFSGVLAYILGKQEGKARILYADGVRANAQASDIANDFALQASMRPNVKKPVCHTILSFSAEDTERLSDKVMTDLAKEYLQRMGYADTQYLIVRHLDREHPHLHICINRVNNEGKTISDSNEKYCSTKVCKELTEANLLKWGEGKEAVKRHRLRGNDQLRYAIFDAIKAALPKCTNWQELTSELQKRGIEVQFKTKGQTEKVEGVIFSMDGVSFSGSHIDRSCSYSKLSFALEQNAKHALSLPALPKEDGFIEELSEAIEKLGENLFDSNAPAVDVAELIFQRKLRNQANKKLKRRRL
MIASIFGKITFVGKRKIIVEANCISYWFNVKENHSFEKNLEKPRQVFCQIIKRMVTNQILEEGFA
MIDMTSKKRAVAPRDLYRRWPWANTAGMEPDMVRLQIFVQNLERAVIGDGRMRPVTSPSEFCDNIGISHATLGRILRGEVIPRFDTIDKLERGVGRALFPPFEDVRVRGNKG
MIDQLQVGPNPLVGLLDDVHMLEVQRDSGVANILNSPEIKKRHYNATRKRVNRRDSTIVEPEAKSRKMDENWTGVGTESESTDCVETTETRFTWFKAQTKHPGLAKSLQSEVTKVGLSIVDLQHCTLPCKSINYNFHFYSFKGLSREDSKKFEEMIDQNFVNNFCAENLLNKEDKNFFYYDLGYKQVVSLSMLATYFKIKNEQPLLHPLKMLLNKQLLKKAFEDADTHVELKKYLSKNGYSKLVQWMEEMTQ
MIDWPLAELLPHAGDMILIDQVLAFDEEQIRTRLEVRPGGLFNRPDGSLPAWVGVELMAQSVAAYAGCRARQQGLPVELGFLLGTRKFECNVEHFPLGSTLEIHALRSLEDDNGMGVFECHLSGPGITASARLNVFRPPQAADYLHETPLEHHHHHH
MIEERFDAIVVGAGMAGNAAALTMAKRGLKVLQIERGEYPGSKNVQGAILYADMLEKLVPDFREDAPLERHLVEQRFWMMDGKSHTGLHHRSEDFNEEKPNRYTIIRAQFDKWLSSKAQEAGAIVLCETTVKELVQDAYGKVIGVITDREGGQVHADVVVLAEGVNGLLGTKAELRERPTPENVALAVKEMHFLPRETIEARFNLKGDEGVVIEAAGTISAGMTGMGFIYTNKESISIGIGCLVSDFQKTGETPYGLLERFKKHPSVAPLIEGSEVKEYAGHLIPEGGYNAIPQLYGDGWVVVGDAAQLNNAMHREGSNLAMTSGRIAAEAIFQVKSRKDPMTKENLALYKKMLDDSFVIKDLKKYKDMPDLLHIRSQNFFLTYPQLVNKALQNFVRVDGTPKIEKEKTTIKSFVSARSWGGLFGDAFRFARAWR
MIEIKNLTLQRGLKVLLDKANATVNPGQRVGLIGKNGTGKSSLFALIKGEITQDGGDVSIPKNWRLASVSQETPDLDISALDYVLQGDAELQAFQTALRQAEAQNDGMKQAEYHAKLEE

Reference: the DeepSol protein solubility set
